Data taken from publication PMC5571166, “Mapping the key residues of SufB and SufD essential for biosynthesis of iron-sulfur clusters” (Scientific Reports, 2017).
Where a chain is given by its changes, count along the chain named. One block for each binder: values may come before it.

Experiments:
Assay in all cases: SEC; SufBCD complexes co-expressed in E. coli and co-purified on Phenyl FF, Q XL and Sephacryl S-200; eluted from gel filtration at about 160 kDa; subunit composition checked by SDS-PAGE of the purified sample
Conditions in all cases: both partners purified
SufB^C405A = molecular target: T1, SufB^C405A (Escherichia coli, UniProt P77522 1-495, SufB^C405A)
T1 construct: SufB of the Escherichia coli sufABCDSE operon
T1 sequence: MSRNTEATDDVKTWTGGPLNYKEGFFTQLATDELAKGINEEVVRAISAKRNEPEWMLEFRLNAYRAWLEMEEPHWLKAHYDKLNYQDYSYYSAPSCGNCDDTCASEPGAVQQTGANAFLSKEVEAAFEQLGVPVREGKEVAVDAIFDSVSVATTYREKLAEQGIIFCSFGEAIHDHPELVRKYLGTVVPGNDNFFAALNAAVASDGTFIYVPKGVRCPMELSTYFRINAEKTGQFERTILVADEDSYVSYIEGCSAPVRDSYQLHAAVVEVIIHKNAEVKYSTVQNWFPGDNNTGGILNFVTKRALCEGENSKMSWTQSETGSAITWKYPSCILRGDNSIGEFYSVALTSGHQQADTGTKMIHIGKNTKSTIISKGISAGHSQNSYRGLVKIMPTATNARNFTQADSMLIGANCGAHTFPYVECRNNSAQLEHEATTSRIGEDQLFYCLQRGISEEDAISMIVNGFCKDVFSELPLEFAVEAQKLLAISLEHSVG

SufB (wild type) = molecular target: T2, SufB (wild type) (Escherichia coli, UniProt P77522 1-495)
T2 construct: SufB of the Escherichia coli sufABCDSE operon; Expressed from the cloned suf genes with no tag mentioned; The host is stated only for the variant complexes (YT2512, pGSO164-derived plasmid); One SufB per SufBCD complex (SufB:SufC:SufD 1:2:1); also called SufB subunit of the wild-type SufBCD complex; source: purified as the wild-type SufBCD complex; E. coli YT2512 (ΔsufABCDSE) from pBBR-sufAB, in …
T2 sequence: T1 sequence with A405C

SufB^R226A = molecular target: T3, SufB^R226A (Escherichia coli, UniProt P77522 1-495, SufB^R226A)
T3 construct: SufB of the Escherichia coli sufABCDSE operon
T3 sequence: T1 sequence with R226A, A405C

SufB^K303A = molecular target: T4, SufB^K303A (Escherichia coli, UniProt P77522 1-495, SufB^K303A)
T4 construct: SufB of the Escherichia coli sufABCDSE operon
T4 sequence: T1 sequence with K303A, A405C

- binding result (SufB^C405A): binds
- binding result (SufB (wild type)): binds
- binding result (SufB^R226A): binds
- binding result (SufB^K303A): binds
B1: SufC (natural protein, Escherichia coli)
chain: MLSIKDLHVSVEDKAILRGLSLDVHPGEVHAIMGPNGSGKSTLSATLAGREDYEVTGGTVEFKGKDLLALSPEDRAGEGIFMAFQYPVEIPGVSNQFFLQTALNAVRSYRGQETLDRFDFQDLMEEKIALLKMPEDLLTRSVNVGFSGGEKKRNDILQMAVLEPELCILDESDSGLDIDALKVVADGVNSLRDGKRSFIIVTHYQRILDYIKPDYVHVLYQGRIVKSGDFTLVKQLEEQGYGWLTEQQ
notes: SufC of the Escherichia coli sufABCDSE operon; also called SufC subunit of the SufBCD complex

- binding result (SufB^C405A): binds
- binding result (SufB (wild type)): binds
- binding result (SufB^R226A): binds
- binding result (SufB^K303A): binds
B2: SufD (natural protein, Escherichia coli)
chain: MAGLPNSSNALQQWHHLFEAEGTKRSPQAQQHLQQLLRTGLPTRKHENWKYTPLEGLINSQFVSIAGEISPQQRDALALTLDSVRLVFVDGRYVPALSDATEGSGYEVSINDDRQGLPDAIQAEVFLHLTESLAQSVTHIAVKRGQRPAKPLLLMHITQGVAGEEVNTAHYRHHLDLAEGAEATVIEHFVSLNDARHFTGARFTINVAANAHLQHIKLAFENPLSHHFAHNDLLLAEDATAFSHSFLLGGAVLRHNTSTQLNGENSTLRINSLAMPVKNEVCDTRTWLEHNKGFCNSRQLHKTIVSDKGRAVFNGLINVAQHAIKTDGQMTNNNLLMGKLAEVDTKPQLEIYADDVKCSHGATVGRIDDEQIFYLRSRGINQQDAQQMIIYAFAAELTEALRDEGLKQQVLARIGQRLPGGAR
notes: SufD of the Escherichia coli sufABCDSE operon; One SufD per SufBCD complex (1:2:1); also called SufD subunit of the SufBCD complex
